The source of these data is patent US5488099, “Multifunctional chimeric neurotrophic factors” (dated 1996).

The target in assay [1] is TrkA of NGF-responsive neurons from embryonic chick sympathetic ganglia (chick).
Assay [2] has as its target T1, TrkB (Rattus norvegicus (Rat), UniProt Q63604). As to the kind of experiment: competition with 125I-BDNF on rtrkB-3T3 cells, COS conditioned medium, relative binding from IC50. As to the method: (§1) Purified mouse NGF and BDNF were labeled with ^125I by the lactoperoxidase method to an average specific activity of 1×10^8 cpm/μg. For the labeling of BDNF, the modifications described by Rodriguez-Tebar et al. ([Rodriguez-Tebar, 1992]) were used. NIH3T3 fibroblasts expressing TrkA, TrkB or TrkC were used at 2 to 1–×10^6 cells/ml. Steady state binding was measured in competition assays performed at 4° C. using 1.5×10^-9M ^125I-BDNF and serial dilutions of conditioned media containing equivalent amounts of wt or mutated NGF protein. All components were added at the same time and the cells were collected by centrifugation after equilibrium was reached (90–120 minutes incubation). Cell pellets were then counted in a gamma counter. […] Nonspecific binding was measured in a parallel incubation to which 300 to 1000-fold molar excess of unlabelled purified factor was added. All results were corrected for this nonspecific binding, which was less than 10% (for NGF) or 30% (for BDNF) of total binding. The concentration of each chimeric, mutant and wild type molecule that gave 50% binding (IC$50$) was determined, and relative binding was calculated using the relationship:(mutant IC$50$/wild type IC$50$)X 100.

Assay [3] addresses T1, TrkB. Briefly: competition with 125I-BDNF on rtrkB-3T3 cells. Here is the method:
as §1

Assay [4] addresses T2, TrkA (Rattus norvegicus (Rat), UniProt P35739). As to the kind of experiment: competition with 125I-NGF on rtrkA-3T3 cells, COS conditioned medium, relative binding from IC50. As to the method: (§2) FIG. 2A–D. TrkA receptor binding, receptor phosphorylation and biological activity of wild-type (wt) and chimeric molecules (see SEQ. ID. NOS. 1 and 2 for all chimeric constructions). […] Each point represents the mean of triplicate determinations. Standard deviation was at or generally below ±10%. (B) and (C) Tyrosine phosphorylation of TrkA receptors stimulated by wt NGF, wt BDNF and chimeric molecules. rtrkA-3T3 cells were treated with 100 ng/ml of the indicated recombinant proteins and assayed for tyrosine phosphorylation. Media from mock-transfected COS cells was used as negative control (CONTROL). Arrowhead indicates the migration of phosphorylated TrkA (p140^trk). The faster migrating band correspond to constituitively phosphorylated p140^trk precursors ([Kaplan, 1991]). (D) Serial dilutions of transfected COS cell conditioned medium containing equal amounts of wt and chimeric factors were assayed for their ability to stimulate neurite outgrowth from E8 chick sympathetic ganglia. Data from three determinations varied by ±20% of the average values reported here. Key symbols as in (A).
Purified mouse NGF and BDNF were labeled with ^125I by the lactoperoxidase method to an average specific activity of 1×10^8 cpm/μg. For the labeling of BDNF, the modifications described by Rodriguez-Tebar et al. ([Rodriguez-Tebar, 1992]) were used. NIH3T3 fibroblasts expressing TrkA, TrkB or TrkC were used at 2 to 1–×10^6 cells/ml. […] All components were added at the same time and the cells were collected by centrifugation after equilibrium was reached (90–120 minutes incubation). Cell pellets were then counted in a gamma counter.

The target in assay [5] is TrkB of BDNF-responsive neurons from embryonic chick nodose ganglia (chick).
Sequence of TrkB of BDNF-responsive neurons from embryonic chick nodose ganglia (chick) (Q91987 whole entry): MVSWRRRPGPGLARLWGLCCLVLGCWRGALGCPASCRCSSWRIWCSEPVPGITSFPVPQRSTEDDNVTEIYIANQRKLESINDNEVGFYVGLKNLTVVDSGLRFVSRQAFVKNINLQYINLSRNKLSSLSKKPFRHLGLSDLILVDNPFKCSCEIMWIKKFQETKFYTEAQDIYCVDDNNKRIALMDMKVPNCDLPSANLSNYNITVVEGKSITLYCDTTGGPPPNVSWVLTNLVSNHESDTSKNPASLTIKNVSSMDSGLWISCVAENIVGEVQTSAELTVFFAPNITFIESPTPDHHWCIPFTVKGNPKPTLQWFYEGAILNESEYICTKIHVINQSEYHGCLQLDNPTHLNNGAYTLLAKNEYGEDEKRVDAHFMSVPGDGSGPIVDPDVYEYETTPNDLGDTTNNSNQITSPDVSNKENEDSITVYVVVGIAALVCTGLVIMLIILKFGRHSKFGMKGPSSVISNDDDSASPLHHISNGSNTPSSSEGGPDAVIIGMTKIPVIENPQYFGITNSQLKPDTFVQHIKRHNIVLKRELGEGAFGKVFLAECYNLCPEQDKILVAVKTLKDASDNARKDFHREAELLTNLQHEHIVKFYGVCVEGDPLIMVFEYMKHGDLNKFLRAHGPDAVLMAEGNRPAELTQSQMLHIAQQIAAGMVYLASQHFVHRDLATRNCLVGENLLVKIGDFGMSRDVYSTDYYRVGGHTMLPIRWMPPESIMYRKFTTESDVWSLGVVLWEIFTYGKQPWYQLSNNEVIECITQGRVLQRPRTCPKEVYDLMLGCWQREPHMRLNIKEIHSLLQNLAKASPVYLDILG
Assay [6] concerns the target T2, TrkA. Briefly: competition with 125I-NGF on rtrkA-3T3 cells. Here is the method: as §1, with “Steady state binding was measured in competition assays performed at 4° C. using 1.5×10^-9M ^125I-BDNF and serial dilutions of conditioned media containing equivalent amounts of wt or mutated NGF protein.” left out
Figure 3A: FIG. 3A&B. NGF variable regions I, IV and V partially restore TrkA binding and biological activity of the NH_2+I+III+IV+V chimeric molecule (see SEQ. ID. NOS. 1 and 2 for all chimera construction). […] Each point represents the mean of triplicate determinations.

The target of assay [7] is T2, TrkA. As to the kind of experiment: competition with 125I-NGF on rtrkA-3T3 cells. Here is the method:
as §2
Purified mouse NGF and BDNF were labeled with ^125I by the lactoperoxidase method to an average specific activity of 1×10^8 cpm/μg. For the labeling of BDNF, the modifications described by Rodriguez-Tebar et al. ([Rodriguez-Tebar, 1992]) were used. […] Cell pellets were then counted in a gamma counter.
This is another data set of the same source.

The target in assay [8] is TrkB (Rattus norvegicus (Rat)) (UniProt Q63604).

Bounds are passed on as bounds.

B1: wild-type rat nerve growth factor (ligand)
chain: SSTHPVFHMGEFSVCDSVSVWVGDKTTATDIKGKEVTVLGEVNINNSVFKQYFFETKCRAPNPVESGCRGIDSKHWSNYCTTTHTFVKALTTDDKQAAWRFIRIDTACVCVLSRKAARRG
Regarding B1, the Biological Activity % of wild type (neurite outgrowth from explants of embryonic sympathetic ganglia) (% of wild type) in assay [1] is 100. In addition, the figures for the “Receptor Binding % of wild type” value with TrkB [2] and with TrkA [4] were < 0.2 % of wild type and 100 % of wild type, respectively. Also, the binding result in the assay with TrkB [3] is listed as “no binding (tested: <0,2 % of wild type)”. Moreover, the Biological Activity % of wild type (maximal cell survival of dissociated embryonic nodose neurons) (% of wild type) in assay [5] is under 5.

B2: NGF mutant I31A (ligand)
chain: SSTHPVFHMGEFSVCDSVSVWVGDKTTATDAKGKEVTVLGEVNINNSVFKQYFFETKCRAPNPVESGCRGIDSKHWSNYCTTTHTFVKALTTDDKQAAWRFIRIDTACVCVLSRKAARRG
Take B2: in assay [1], the Biological Activity % of wild type (neurite outgrowth from explants of embryonic sympathetic ganglia) (% of wild type) is 25. In the assay with TrkA [6], the “fold reduction in receptor binding against wt NGF” value was 4 fold. Moreover, the “Receptor Binding % of wild type” value with TrkA [4] was 20 % of wild type.

B3: wild-type brain-derived neurotrophic factor (ligand)
chain: HSDPARRGELSVCDSISEWVTAADKKTAVDMSGGTVTVLEKVPVSKGQLKQYFYETKCNPMGYTKEGCRGIDKRHWSNQCRTTQSYVRALTMDSKKRIGWRFIRIDTSCVCTLTIKRGR
In the case of B3, the Biological Activity % of wild type (neurite outgrowth from explants of embryonic sympathetic ganglia) (% of wild type) in assay [1] was under 0.2. Besides, the “Receptor Binding % of wild type” value in the assay with TrkB [2] was 100 % of wild type; with TrkA [4] it was < 0.2 % of wild type. The binding result in the assay with TrkA [7] is “no binding (tested: <0,2 % of wild type)”. The same molecule had an EC50 of TrkB tyrosine phosphorylation in assay [8] of 5 ng/mL. The molecule further came in with a Biological Activity % of wild type (maximal cell survival of dissociated embryonic nodose neurons) (% of wild type) in assay [5] of 100.
